Laboratory results taken from the supplement of paper PMC9170038.

Tested on: MS2 coat protein
Assay: apparent KD of MS2 coat protein; designed switch direction (-1 OFF switch, 1 ON switch): 1; higher = weaker reporter binding
How it was run: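 On Illumina chips, designed RNA switches with common flanks were made by stalled E. coli RNA polymerase. Titrations with SNAP-549-labelled MS2 coat protein, doubling from 0.7 or 1.5 nM to 3 µM, were done with no input, with 200 uM small-molecule ligand, or with an oligonucleotide input. Apparent KD is the median per design over clusters, from curve fits of normalised cluster fluorescence.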

[1] = input ligand: microRNA oligo, concentration not stated
[2] = Eterna round: R95, input ligand: FMN 200 uM
[3] = Eterna round: R95, input ligand: microRNA oligo, concentration not stated
[4] = Eterna round: R95, input ligand: none

GGUAGGUUACUACCAAACAUGAGGAUCACCCAUGUAAGUGGGAAGGAUAUGGUACCUAAAAGGUACCAGAAGGUCCAUAUAGUU [Mat - Same State NG 3 - JL Mod - D99] (Eterna round: R96, puzzle: Same State NG 3)
apparent KD of MS2 coat protein (input ligand: FMN 200 uM): 202 nM
apparent KD of MS2 coat protein [1]: 228 nM
apparent KD of MS2 coat protein (input ligand: none): 711 nM

AGUCCAGCCUGAGCUGGACAAAAGCAUGUACAUGAGGAUCACCCAUGUUCAUGUACAAGCUUUUUGCUCGUCUUGCG [salish99_208a_r3_106x] (puzzle: Sensor for hsa-mir-208a)
apparent KD of MS2 coat protein [2]: 641 nM
apparent KD of MS2 coat protein [3]: 17.3 nM
apparent KD of MS2 coat protein [4]: 867 nM

AGAUCAUGACGAGGAUAUGCCACAUGAGGAUCACCCAUGUAUGUGGUAGGACGGAAACGUCCAAAGCAGAAGGCGUCGUGGUCA [Mat - Same State NG 2 - JL mod - D35] (Eterna round: R96, puzzle: Same State NG 2)
apparent KD of MS2 coat protein (input ligand: FMN 200 uM): 23.1 nM
apparent KD of MS2 coat protein [1]: 44.8 nM
apparent KD of MS2 coat protein (input ligand: none): 41.7 nM

GUUACAUGAGGAUCACCCAUGUAUGUGUGGGAGUAAGUGUCUUAGGAUAUCUGUUAUUUAAGUUAAGAGAAGGAAGAUUGUUGU [JMF's solution 42] (Eterna round: R96, puzzle: Same State NG 3)
apparent KD of MS2 coat protein (input ligand: FMN 200 uM): 92.8 nM
apparent KD of MS2 coat protein [1]: 45.6 nM
apparent KD of MS2 coat protein (input ligand: none): 82.4 nM

AGUCCAGCCUGAGCUGGACAAAAGCAUGUACAUGAGGAUCACCCAUGUCAUGUACAAGCUUUUUGCUCGUCUUAAAG [Mat - hsa-mir-208a - Mod of JL - D23] (puzzle: Sensor for hsa-mir-208a)
apparent KD of MS2 coat protein [2]: 231 nM
apparent KD of MS2 coat protein [3]: 18 nM
apparent KD of MS2 coat protein [4]: 312 nM

CCCGCGUUUCGCGCCUACAUGAGGAUCACCCAUGUUUGUAGGCAGGAUAUCGUCCGCUCUGCGGGCGAGAAGGGCUGUCGUGGU [salish99_SSNG3_R04_030] (Eterna round: R96, puzzle: Same State NG 3)
apparent KD of MS2 coat protein (input ligand: FMN 200 uM): 65.7 nM
apparent KD of MS2 coat protein [1]: 53.5 nM
apparent KD of MS2 coat protein (input ligand: none): 70.1 nM

GGUAAGAAUUAAGGAUAUCGAGUACAUAUGUUUAACAUGAGGAUCACCCAUGUGGGUUGCGGUAUCGAGAAGGUAAAUUAUAAG [Mat - same State NG 2 - JL mod - D63] (Eterna round: R96, puzzle: Same State NG 2)
apparent KD of MS2 coat protein (input ligand: FMN 200 uM): 43.3 nM
apparent KD of MS2 coat protein [1]: 29.7 nM
apparent KD of MS2 coat protein (input ligand: none): 50.8 nM

AUUGCUUUCGCAGGAUAUGAUGCGAAAAUUGCGUCAGAAGGGUGGAGUAUCUCAUUGCAAGAGGACAUGAGGAUCACCCAUGUC [SameState NG1 #87] (Eterna round: R96, puzzle: Same State NG 1)
apparent KD of MS2 coat protein (input ligand: FMN 200 uM): 40.5 nM
apparent KD of MS2 coat protein [1]: 140 nM
apparent KD of MS2 coat protein (input ligand: none): 216 nM

GGAAAGAGGUUAGGAUAUGCAUGGCUGGGACAUGAGGAUCACCCAUGUAAUAGAAGAAAUCUACAGUAGAAGGGACAAGGAAGG [AK SSNG2-V2-8] (Eterna round: R96, puzzle: Same State NG 2)
apparent KD of MS2 coat protein (input ligand: FMN 200 uM): 759 nM
apparent KD of MS2 coat protein [1]: 262 nM
apparent KD of MS2 coat protein (input ligand: none): 224 nM

GGAGCCAAGGCAGGAUAUUCAUAUUAAUAACACAUGAGGAUCACCCAUGUGGCCAGAAGGCCAUGGGAGAAGGGCCAUGGCUCG [Xeonanis - 13 mod10] (Eterna round: R96, puzzle: Same State NG 2)
apparent KD of MS2 coat protein (input ligand: FMN 200 uM): 86.3 nM
apparent KD of MS2 coat protein [1]: 195 nM
apparent KD of MS2 coat protein (input ligand: none): 469 nM

AGGAAGGAGACUGAGGAUAUCGUUGAAAAGACAUGAGGAUCACCCAUGUGUAUAGGAUUGGAGAACGAGAAGGCAGAGGAGUGGA [JR_SS2_Sub044] (puzzle: Same State 2)
apparent KD of MS2 coat protein [2]: 29.2 nM
apparent KD of MS2 coat protein [3]: 33.3 nM
apparent KD of MS2 coat protein [4]: 37.5 nM

CGGGUACAUGAGGAUCACCCAUGUUGGAGUAAUGCAGGAUAUGUGAGACGAGAAGAUAAAACAGAAGGGCAAGGAG [JR_SS!_Sub009] (puzzle: Same State 1)
apparent KD of MS2 coat protein [2]: 37.4 nM
apparent KD of MS2 coat protein [3]: 95 nM
apparent KD of MS2 coat protein [4]: 77.6 nM

CUGAGCGAUCAAGGAUAUCACGUCGUUUAGACGUGAGAAGGUGAUAAUUACAUGAGGAUCACCCAUGUAUAACAUGAAGCUCAG [SSNG1/9-A3] (Eterna round: R96, puzzle: Same State NG 1)
apparent KD of MS2 coat protein (input ligand: FMN 200 uM): 14 nM
apparent KD of MS2 coat protein [1]: 16.4 nM
apparent KD of MS2 coat protein (input ligand: none): 21 nM

UGGUACAUGGGAGGAUAUCAUGCAAACAUGAGGAUCACCCAUGUAGCCAUGGAGACAUGGGUAUAUGAGAAGGCCCAUGUACCU [JL SSNG1 3.52] (Eterna round: R96, puzzle: Same State NG 2)
apparent KD of MS2 coat protein (input ligand: FMN 200 uM): 317 nM
apparent KD of MS2 coat protein [1]: 51.9 nM
apparent KD of MS2 coat protein (input ligand: none): 88.3 nM

CCGCUCCGUGGAGGAUAUGGGCCUGCCCGGGAUAACGGGCCUAACACAUGAGGAUCACCCAUGUCCCAGAAGGCCGCUGGAGCC [Atxerexebe] (Eterna round: R96, puzzle: Same State NG 2)
apparent KD of MS2 coat protein (input ligand: FMN 200 uM): 24.8 nM
apparent KD of MS2 coat protein [1]: 40 nM
apparent KD of MS2 coat protein (input ligand: none): 113 nM

UGCCUGAGUCGAGGAUAUUAUGGAUCCUUUAAUACAUGAGGAUCACCCAUGUAAUUAAUUAUACAUGAGAAGGUGACUCAGGCA [SSNG2/11-B2] (Eterna round: R96, puzzle: Same State NG 2)
apparent KD of MS2 coat protein (input ligand: FMN 200 uM): 39 nM
apparent KD of MS2 coat protein [1]: 126 nM
apparent KD of MS2 coat protein (input ligand: none): 289 nM

UAGUGAUUGCAAGGAUAUGCUAGUUUUUAUUUGUGUUUGAUAUCUAACAUGAGGAUCACCCAUGUGCAGAAGGUGCUUGAUUUG [JR_SSNG2_Sub077] (Eterna round: R96, puzzle: Same State NG 2)
apparent KD of MS2 coat protein [1]: 68.6 nM

AAACGAAACACGGCCACAUGAGGAUCACCCAUGUCGAGUUCACAGGAUAUACCUACGUCCUCGUGGUAGAAGGGUGAGGCUGUG [Rienat] (Eterna round: R96, puzzle: Same State NG 3)
apparent KD of MS2 coat protein (input ligand: FMN 200 uM): 750 nM
apparent KD of MS2 coat protein [1]: 39.5 nM
apparent KD of MS2 coat protein (input ligand: none): 215 nM

UCAGUCAUGUAAGGAUAUGCAGCCGAAACGGCUGCAGAAGGUACUAUAAUUACAUGAGGAUCACCCAUGUUAUAAAAUAAAUAU [Mat - Same State NG 1 - JL mod - D65] (Eterna round: R96, puzzle: Same State NG 1)
apparent KD of MS2 coat protein (input ligand: FMN 200 uM): 18.4 nM
apparent KD of MS2 coat protein [1]: 36 nM
apparent KD of MS2 coat protein (input ligand: none): 76.6 nM

GUUACAUGAGGAUCACCCAUGUAUGUGUGGGAGUAAGUGUCUUAGGAUAUCUAUUAUUUAAUUUUAGAGAAGGAAGAUUGUUGU [JMF's solution 27] (Eterna round: R96, puzzle: Same State NG 3)
apparent KD of MS2 coat protein (input ligand: FMN 200 uM): 138 nM
apparent KD of MS2 coat protein [1]: 105 nM
apparent KD of MS2 coat protein (input ligand: none): 120 nM

UGUUGUAUUACAGGAUAUCUAUUAUUUUUUUUUAGAGAAGGGUAUUCACAUGAGGAUCACCCAUGUAUAUACGAGGAAGUUGUG [JMF's solution 23] (Eterna round: R96, puzzle: Same State NG 1)
apparent KD of MS2 coat protein [1]: 45.5 nM

AACAAUCUAUCUGAGGAUAUCAUGAAAUAAACAUGAGGAUCACCCAUGUGCAGGAAAACUGUAUAUGAGAAGGCAGAUAGAUUGA [salish99_ss2_r3_046] (puzzle: Same State 2)
apparent KD of MS2 coat protein [2]: 14.8 nM
apparent KD of MS2 coat protein [3]: 69.2 nM
apparent KD of MS2 coat protein [4]: 101 nM

GGAAUAUUUACAGGAUAUGAUUUGUAAAUUCGAUCAGAAGGGUAGAUGUCUUACACGACUUGUUACAUGAGGAUCACCCAUGUU [SameState NG1 #9] (Eterna round: R96, puzzle: Same State NG 1)
apparent KD of MS2 coat protein (input ligand: FMN 200 uM): 41.6 nM
apparent KD of MS2 coat protein [1]: 48.8 nM
apparent KD of MS2 coat protein (input ligand: none): 67.3 nM

UGGUACAUGGGAGGAUAUCAUGUAGACAUGAGGAUCACCCAUGUAGCCAUGGAGACAUGGGAGAAUGAGAAGGCCCAUGUACCU [JL SSNG1 3.54] (Eterna round: R96, puzzle: Same State NG 2)
apparent KD of MS2 coat protein (input ligand: FMN 200 uM): 298 nM
apparent KD of MS2 coat protein [1]: 14.1 nM
apparent KD of MS2 coat protein (input ligand: none): 104 nM

UGUUGUAUUACAGGAUAUCUAGUAUUUUUGUUUAGAGAAGGGUAUUCACAUGAGGAUCACCCAUGUAUAUACGAGGAAGUUGUG [JMF's solution 47] (Eterna round: R96, puzzle: Same State NG 1)
apparent KD of MS2 coat protein [1]: 42.3 nM

GACAAUCUAUCUGAGGAUAUCAUGAUAAUAACAUGAGGAUCACCCAUGUGCAGGAAAACUGCAUAUGAGAAGGCAGAUAGAUUGA [Mat - Same State 2 - Mod - D14] (puzzle: Same State 2)
apparent KD of MS2 coat protein [2]: 34.2 nM
apparent KD of MS2 coat protein [3]: 62.3 nM
apparent KD of MS2 coat protein [4]: 294 nM

UUACUCAUGUAAGGAUAUGCAGCCGAAACGGCUGCAGAAGGUACUAUAAUACAUGAGGAUCACCCAUGUAAAAUAAAUAAAGUU [Mat - Same State NG 1 - JL mod - D97] (Eterna round: R96, puzzle: Same State NG 1)
apparent KD of MS2 coat protein (input ligand: FMN 200 uM): 29.1 nM
apparent KD of MS2 coat protein [1]: 32 nM
apparent KD of MS2 coat protein (input ligand: none): 35.9 nM

GAUAGACAUGAGGAUCACCCAUGUGACAAAACCACAGGAUAUCAUGCAGGCGUAACUGCAUGAGAAGGGUGAGACU [Quanve] (puzzle: Same State 1)
apparent KD of MS2 coat protein [2]: 61.1 nM
apparent KD of MS2 coat protein [3]: 20.6 nM
apparent KD of MS2 coat protein [4]: 35.8 nM

AAAGUACAUGAGGAUCACCCAUGUCCAAACAAGUAAGGAUAUACGAAAACAAAACAAAAUGUAGAAGGUACAACAA [Same State 1 #2] (puzzle: Same State 1)
apparent KD of MS2 coat protein [2]: 18.1 nM
apparent KD of MS2 coat protein [3]: 17.9 nM
apparent KD of MS2 coat protein [4]: 26.4 nM

ACAUGAGAGAAAGGAUAUGUUGUACCUACAUGUGACAUGAGGAUCACCCAUGUGGUAAGUAUGAGACAGAAGGUUCAGAUAUGU [Equivalence 32 - Jieux - Same State NG 2] (Eterna round: R96, puzzle: Same State NG 2)
apparent KD of MS2 coat protein (input ligand: FMN 200 uM): 20.4 nM
apparent KD of MS2 coat protein [1]: 51.1 nM
apparent KD of MS2 coat protein (input ligand: none): 65.7 nM

GUACUACAUGAGGAUCACCCAUGUACAAAGGUACGAGGAUAUGCAUGUACGAAAGUAUAUGCAGAAGGCGUAGUAC [Pin2Pin #2] (puzzle: Same State 1)
apparent KD of MS2 coat protein [3]: 23.3 nM
